# Measured values taken from the nanobody polyreactivity screen of Harvey et al. (2022).
# Test: yeast display, Sf9 membrane polyspecificity reagent, FACS + sequencing; frameworks hold sequencing errors
# Outline: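 In a synthetic yeast display library (Saccharomyces cerevisiae BJ5465), nanobody expression was induced with galactose for 36–48 hours. FACS gates were set low and high (top ~1%) using anti-HA fluorescence for expression and streptavidin fluorescence for binding of the Sf9 membrane reagent. Each polyreactivity label is drawn from the gate of origin.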
row,Sequence,polyreactivity (PSR sort gate)
1,QVQLVESGGGLVQAGGSLRLSCAASGITFYYYDMGWYRLAPGKERELVAAISWSGGRTYYADSVKGRFTISRDNEKNTVYLQMNSLKPEDTAVYYCASGYYVYHFVSLYGGDYWGQGTQVTVSS,high polyreactivity
2,QVQLVESGGGLVQAGGSLRLSCAASGITGHNAMGWYIQAPGKERELVARISSGGRTNYADSVKGRFTISRDNAKNTVYLQMNSLKPEDTAVYYCAAGFRVGSFLRYNYWGQGTQVTVSS,high polyreactivity
3,QVQLVESGGGLVQAGGSLRLSCAASGITIDVYGMGWYRQAPGKERELVASIRRRGGSTYYADSVKGRFTISRDNAKNTVYLQMNSLKPEDTAVYYCAAVPSDGHRIWSWDPYPEYDYWGQGTQVTVSS,low polyreactivity
4,QVQLVESGGGLVQAGGSLRLSCAASGITIDYYAMGWYRQAPGKERELVAAISSVGNTNYADSVKGRFTISRDNAKNTVYLQMNSLKPEDTAVYYCATYAYYLYHVGTAYDYWGQGTQVTVSS,high polyreactivity
5,QVQLVESGGGLVQAGGSLRLSCAASGITIGSNVMGWYRQAPGKERELVAAISQSGGRTYYADSVKGRFTISRDNAKNTVYLQMNSLKPEDTAVYYCAKRQRSFYGRPMGDYWGQGTQVTVSS,high polyreactivity
6,QVQLVESGGGLVQAGGSLRLSCAASGITIKRYAMGWYRQAPGKEREFVATISQSGTSTYYADSVKGRFTISRDNAKTTVYLQMISLKPEDTAVYYCAADFIGYWYGYYSWGQGTQVTVSS,low polyreactivity
7,QVQLVESGGGLVQAGGSLRLSCAASGITIPVYMGWYRQAPGKERELVASISTIGGTTYYADSVKGRFTISRDNAKNTVYLQMNSLKPEDTAVYYCAADHPWSWYDYWGQGTQVTVSS,low polyreactivity
8,QVQLVESGGGLVQAGGSLRLSCAASGITIVLYAMGWYRQAPGQERQLVAAINIDGNTNYADSVKGRFTISRDNAKNTVYLQMNSLKPEDTAVYYCAATFVPAQSRYTGSKYDYWGQGTQVTVSS,low polyreactivity
9,QVQLVESGGGLVQAGGSLRLSCAASGITIVLYTMGWYRQAPGKEREFVAGITRGGSTYYADSVKGRFTISRDNAKNTVYLQMNSLKPEDTSVYYCAARPRFLRASVEYDYWGQGTQVTVSS,high polyreactivity
10,QVQLVESGGGLVQAGGSLRLSCAASGITIVNYVMGWYRQAPGKERELVAAISIGGGTYYADSVKGRFTISRDNEKNTVYLQMNSLKPEDTAVYYCNASYGGLSFYIGVYVTGYDYWGQGTQVTVSS,low polyreactivity
11,QVQLVESGGGLVQAGGSLRLSCAASGITIYDYTMGWYRQAPGKERELVAVITSAGSTYYADSVKGRFTISRDNAKNTVYLQMNSLKPEDTAVYYCAAVIVSRGRKYRLDYWGQGTQVTVSS,high polyreactivity
12,QVQLVESGGGLVQAGGSLRLSCAASGITIYGYAMGWYRQAPGKERELVAAITRSGGGTYYADSVKGRFTISRDNEKNTVYLQMISLKPEDTAVYYCAADSYSQYTMDYWGQGTQVTVSS,high polyreactivity
13,QVQLVESGGGLVQAGGSLRLSCAASGITLAGYVMGWYRQAPGKERELVADISSSGDSTYYADSVKGRFTISRDNAKNTVYLQMISLKPEDTAVYYWAAEEIIPLIYKGYPFDYWGQGTQVTVSS,low polyreactivity
14,QVQLVESGGGLVQAGGSLRLSCAASGITLGYYAMGWYRQAPGKERELVAAISYRGGNTYYADSVKGRFTISRDNAKNTVYLQRNSLKPEDTAVYYCNADLGYESGWWSKYDYWGQGTQVTVSS,low polyreactivity
15,QVQLVESGGGLVQAGGSLRLSCAASGITLGYYVMGWYRQAPGKERELVAAISSSGGRTYYADSVKGRFTISRDNAKNTVYLQMNSLKPEDTAVYYCAADLGRGIYDYWGQGTQVTVSS,low polyreactivity
16,QVQLVESGGGLVQAGGSLRLSCAASGITLHHNAMGWYRQAPGKERELVAAITSNGGSTYYADSVKGRFTISRDNAKNTVYLQMNSLKPEDTAVYYCARDSKRLARYYYWGQGTQVTVSS,low polyreactivity
17,QVQLVESGGGLVQAGGSLRLSCAASGITLHYYAMGWYRQAPGKERELVATISRSGGSTYYADSVKGRFTISRDNAKNTVYLQMNSLKPEDTAVYYCAARSWGGYDSRGYWGQGTQVTVSS,high polyreactivity
18,QVQLVESGGGLVQAGGSLRLSCAASGITLLYYAMGWYRQAPGKERELVAAISRRGGSTYYADSVKGRFTISRDNAKNTVYLQMNSLKPEDTAVYYCAAYSPYGGYHYLYDYWGQGTEVTVSS,high polyreactivity
19,QVQLVESGGGLVQAGGSLRLSCAASGITLRGNAMGWYRQSPGKERELVAAIRTSGGRTYYADSVKGRFTISRDNAKNTVYLQMNSLIPEDTAVYYCAADYDSSYAYRTPYGYWGQGTQVTVSS,low polyreactivity
20,QVQLVESGGGLVQAGGSLRLSCAASGITLRRNAMGWYRQAPGKERELVARISTTGGSTYYADSVKGRFTISRDNAKNTVYLQMNSLKPEDTAVYYCAADYVQYEFEYWGQGTQVTVSS,high polyreactivity
21,QVQLVESGGGLVQAGGSLRLSCAASGITLSQNAMGWYRQAPGKERELVAAIDSGGVDTYYADSVKGRFTISRDNAKNTVYLQMNSLKPEDTAVYYCAVDYSYEYEYWGQGTQVTVSS,low polyreactivity
